The source of these data is article PMC6400076 (Frontiers in Microbiology, 2019).

Series [1] concerns the target T1, SpGAPDH (Streptococcus pyogenes, UniProt P68777).
T1 construct: gene gap

The target of series [2] is T2, AvGAPDH (Fannyhessea vaginae, UniProt F1T6A5).
T2 construct: gene gap; recombinant, expressed and purified by similar protocols as previously described, homotetramer
Type of series: biochemical.

For series [3], the system named is O=C[C@H](O)COP(=O)(O)O. In words: purified protein. The following applies: 2 mM NAD+, 50 mM Pi, pH 8.5, 25°C.
Series [4] has as its system NC(=O)c1ccc[n+]([C@@H]2O[C@H](COP(=O)(O)OP(=O)(O)OC[C@H]3O[C@@H](n4cnc5c(N)ncnc54)[C@H](O)[C@@H]3O)[C@@H](O)[C@H]2O)c1. In words: purified protein. Conditions: 5 mM G3P, 50 mM Pi, pH 8.5, 25°C.

T2 sequence (F1T6A5 entry or part of it): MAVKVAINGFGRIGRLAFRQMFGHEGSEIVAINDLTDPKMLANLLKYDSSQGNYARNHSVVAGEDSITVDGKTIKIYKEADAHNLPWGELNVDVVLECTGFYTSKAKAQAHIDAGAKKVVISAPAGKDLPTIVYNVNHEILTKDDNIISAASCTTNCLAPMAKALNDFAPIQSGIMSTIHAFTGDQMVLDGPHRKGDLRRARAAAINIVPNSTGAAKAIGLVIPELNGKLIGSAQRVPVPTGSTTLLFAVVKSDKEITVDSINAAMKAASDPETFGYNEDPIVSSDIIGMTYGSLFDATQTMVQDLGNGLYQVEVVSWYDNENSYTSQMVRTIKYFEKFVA
T1 sequence (P68777 whole entry): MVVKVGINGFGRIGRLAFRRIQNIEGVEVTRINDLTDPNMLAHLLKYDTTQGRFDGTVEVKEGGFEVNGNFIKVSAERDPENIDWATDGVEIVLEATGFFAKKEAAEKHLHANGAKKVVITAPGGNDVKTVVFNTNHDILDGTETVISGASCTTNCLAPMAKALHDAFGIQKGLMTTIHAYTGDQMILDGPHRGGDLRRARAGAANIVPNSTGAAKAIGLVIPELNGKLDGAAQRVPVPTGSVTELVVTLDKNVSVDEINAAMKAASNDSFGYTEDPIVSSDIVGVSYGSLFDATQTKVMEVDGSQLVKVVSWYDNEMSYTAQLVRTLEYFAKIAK

For orientation: Ki means a measure of affinity in units of concentration, obtained from inhibition or displacement. For `CCCCCCCCCCCCCCCc1cccc(O)c1C(=O)O` [anacardic acid, 6-pentadecylsalicylic acid], the Ki in series [1] stood at 3.3 ± 0.3 µM; in series [2], 1.25 ± 0.08 µM.

With `COc1cc(/C=C/C(=O)CC(=O)/C=C/c2ccc(O)c(OC)c2)ccc1O` [curcumin], the values for the Ki in series [1] and in series [2] were 38 ± 4 µM and 39 ± 3 µM, respectively.

For orientation: Km means the concentration of substrate that gives half-maximal velocity. By Vmax is commonly meant the top rate of the reaction or transport when substrate is in excess. The term kcat denotes the number of substrate molecules converted per active site and unit of time at saturation. Usually kcat/Km stands for the turnover number divided by the Michaelis constant. Regarding “SpGAPDH (Streptococcus pyogenes MGAS8232)”, in series [3], the Michaelis-Menten constant (Km) came to 2800 ± 300 µM, the Vmax was found to be 3.67e+06 µM/min/mg, the turnover number (kcat) was 6110 ± 260 s⁻¹ and the kcat/Km worked out at 2.18e+06 ± 320000 M⁻¹ s⁻¹. For the same molecule, in series [4], the Km is 280 ± 30 µM, the Vmax is 2.24e+06 µM/min/mg and the kcat is 3730 ± 100 s⁻¹.
